Laboratory results published in patent publication EP4725969A1 (Latticon (Suzhou) Biopharmaceuticals Co., Ltd., dated 2024).
Residue numbers refer to the chain shown, from its start.

B1: 2126-Hu-H36 (antibody, IgG1, V domains shown)
VH: QVQLVQSGSELKKPGASVKVSCKASGYTFTDYSMHWVRQAPGQGLEWMGWINTETGEPTYADDFKGRFTFSLDTSVSTAYLQISSLKAEDTAVYFCVRVGRYDYAMDYWGQGTTVTVSS
VL: DIQMTQSPSSLSASVGDRVTITCKASQDVYTAVAWYQQKPGKAPKLLINSASYRYTGVPSRFSGSGSGTDFTLTISSLQPEDFATYYCQQHYSTPPTFGGGTKVEIK
notes: IgG1/Cκ
B2: 2126-Hu-H61 (antibody, IgG1, V domains shown)
VH: B1 VH with T69V, M106F
VL: B1 VL
notes: IgG1/Cκ
B3: 2126-Hu-H42 (antibody, IgG1, V domains shown)
VH: B1 VH with T69V, V76K
VL: B1 VL
notes: IgG1/Cκ
B4: 2126-Hu-H51 (antibody, IgG1, name in Kabat numbering, V domains shown)
VH: B1 VH with T69V, Y102F
VL: B1 VL
notes: IgG1/Cκ
B5: 2126-Hu-H49 (antibody, IgG1, name in Kabat numbering, V domains shown)
VH: B1 VH with T69V, R101N
VL: B1 VL
notes: IgG1/Cκ
B6: 2126-Hu-L03 (antibody, IgG1, V domains shown)
VH: B1 VH with T69V
VL: B1 VL with Y30S
notes: IgG1/Cκ
B7: 2126-Hu-H58 (antibody, IgG1, name in Kabat numbering, V domains shown)
VH: B1 VH with T69V, D103Q
VL: B1 VL
notes: IgG1/Cκ
B8: 2126-Hu-H46 (antibody, IgG1, V domains shown)
VH: B1 VH with T69V, F95Y
VL: B1 VL
notes: IgG1/Cκ
B9: 2126-Hu-H44 (antibody, IgG1, V domains shown)
VH: B1 VH with T69V, I83L
VL: B1 VL
notes: IgG1/Cκ
B10: 2126-Hu-H38 (antibody, IgG1, V domains shown)
VH: B1 VH with T69V, F70I
VL: B1 VL
notes: IgG1/Cκ
B11: 2126-Hu-H59 (antibody, IgG1, V domains shown)
VH: B1 VH with T69V, D103S
VL: B1 VL
notes: IgG1/Cκ
B12: 2126-Hu-H52 (antibody, IgG1, name in Kabat numbering, V domains shown)
VH: B1 VH with T69V, Y102S
VL: B1 VL
notes: IgG1/Cκ
B13: 2126-Hu-H37 (antibody, IgG1, V domains shown)
VH: B1 VH with T69S
VL: B1 VL
notes: IgG1/Cκ
B14: 2126-Hu-H43 (antibody, IgG1, V domains shown)
VH: B1 VH with T69V, V76T
VL: B1 VL
notes: IgG1/Cκ
B15: 2126-Hu-H45 (antibody, IgG1, V domains shown)
VH: B1 VH with T69V, I83M
VL: B1 VL
notes: IgG1/Cκ
B16: 2126-Hu-H47 (antibody, IgG1, name in Kabat numbering, V domains shown)
VH: B1 VH with T69V, R101F
VL: B1 VL
notes: IgG1/Cκ
B17: 2126-Hu-H56 (antibody, IgG1, name in Kabat numbering, V domains shown)
VH: B1 VH with T69V, D103E
VL: B1 VL
notes: IgG1/Cκ
B18: 2126-Hu-L01 (antibody, IgG1, V domains shown)
VH: B1 VH with T69V
VL: B1 VL with D28S
notes: IgG1/Cκ
B19: 2126-Hu-H39 (antibody, IgG1, V domains shown)
VH: B1 VH with T69V, L72V
VL: B1 VL
notes: IgG1/Cκ
B20: 2126-Hu-H55 (antibody, IgG1, name in Kabat numbering, V domains shown)
VH: B1 VH with T69V, D103A
VL: B1 VL
notes: IgG1/Cκ
B21: 2126-Hu-H48 (antibody, IgG1, name in Kabat numbering, V domains shown)
VH: B1 VH with T69V, R101K
VL: B1 VL
notes: IgG1/Cκ
B22: 2126-Hu-L02 (antibody, IgG1, V domains shown)
VH: B1 VH with T69V
VL: B1 VL with K24R
notes: IgG1/Cκ
B23: 2126-Hu-H57 (antibody, IgG1, name in Kabat numbering, V domains shown)
VH: B1 VH with T69V, D103G
VL: B1 VL
notes: IgG1/Cκ
B24: 2126-Hu-H60 (antibody, IgG1, name in Kabat numbering, V domains shown)
VH: B1 VH with T69V, D103Y
VL: B1 VL
notes: IgG1/Cκ
B25: 2126-Hu-H40 (antibody, IgG1, V domains shown)
VH: B1 VH with T69V, L72R
VL: B1 VL
notes: IgG1/Cκ
B26: 2126-Hu-H53 (antibody, IgG1, name in Kabat numbering, V domains shown)
VH: B1 VH with T69V, Y102N
VL: B1 VL
notes: IgG1/Cκ
B27: 2126-Hu-H50 (antibody, IgG1, V domains shown)
VH: B1 VH with T69V, R101Y
VL: B1 VL
notes: IgG1/Cκ
B28: 2126-Hu-H54 (antibody, IgG1, V domains shown)
VH: B1 VH with T69V, Y102G
VL: B1 VL
notes: IgG1/Cκ

Biological target: T1, recombinant human HER2 extracellular domain protein (human, UniProt P04626 23-652)
T1 construct: range 23-652; Range is printed for the immunogen/panning protein; also called ErbB2; recombinant HER2 protein
Assay: BLI, Protein A capture

Row | Kd [nM] | koff [s⁻¹] | kon [M⁻¹ s⁻¹] | Binder
1 | 5.3 | 0.000558 | 105000 | B1
2 | 22 | 0.00201 | 91400 | B2
3 | 5.11 | 0.000546 | 107000 | B3
4 | 23.8 | 0.00244 | 103000 | B4
5 | 35.9 | 0.00533 | 149000 | B5
6 | 39.5 | 0.00186 | 47100 | B6
7 | 26.3 | 0.00409 | 155000 | B7
8 | 5.7 | 0.000597 | 105000 | B8
9 | 5.3 | 0.000562 | 106000 | B9
10 | 8.4 | 0.000874 | 104000 | B10
11 | 25.3 | 0.00287 | 113000 | B11
12 | 19.3 | 0.00292 | 152000 | B12
13 | 5.31 | 0.000545 | 103000 | B13
14 | 7.2 | – | 107000 | B14
15 | 5.76 | 0.000598 | 104000 | B15
16 | 17.8 | 0.00362 | 204000 | B16
17 | 36.2 | 0.00476 | 131000 | B17
18 | 17.5 | 0.00195 | 112000 | B18
19 | 4.87 | 0.000509 | 105000 | B19
20 | 33.7 | 0.00452 | 134000 | B20
21 | 34.1 | 0.00392 | 115000 | B21
22 | 5.58 | 0.000551 | 98700 | B22
23 | 14.5 | 0.00217 | 150000 | B23
24 | 23.8 | 0.00361 | 152000 | B24
25 | 1.92 | 0.0002 | 104000 | B25
26 | 46.9 | 0.00475 | 101000 | B26
27 | 8 | 0.000902 | 113000 | B27
28 | 7.96 | 0.000936 | 118000 | B28
